Experimental data published in US20030119023.

Columns and labels:
Experiment in all cases: EMSA
[1] = molecular target: ZIF-F4-GAC (TFIIIA finger 4 linker) (artificial) (UniProt P08046); conditions: apparent Kd
[2] = molecular target: ZIF-flex-GAC (linker TG(GSG)5ERP) (artificial) (UniProt P08046); conditions: all sites approximately 50 pM
[3] = test system: ZIF-ZnF-GAC (serine-finger linker) (artificial); conditions: apparent Kd
[4] = molecular target: ZIF-F4mut-GAC (ZIF-mutF4-GAC; TFIIIA finger 4 flanked by GERP linkers) (artificial) (UniProt P08046); conditions: apparent Kd
[5] = molecular target: ZIF-mutZnF-GAC (serine finger flanked by NIKICV and TQQLP) (artificial) (UniProt P08046)
[6] = test system: 2x3F ZIF-GAC (artificial); conditions: apparent Kd; half-site
3x2F ZGS (artificial) = conditions: apparent Kd; half-site; hard to quantify
[7] = molecular target: TF(1-3)-flex-ZIF (linker TG(GSG)5ERP) (artificial) (UniProt P03001+P08046); conditions: apparent Kd
[8] = test system: TF(1-4)-ZIF (TFIIIA F1-4 fused to Zif268) (artificial); conditions: apparent Kd; half-site

Chain of 3x2F ZGS (artificial) (chain, as listed by the source): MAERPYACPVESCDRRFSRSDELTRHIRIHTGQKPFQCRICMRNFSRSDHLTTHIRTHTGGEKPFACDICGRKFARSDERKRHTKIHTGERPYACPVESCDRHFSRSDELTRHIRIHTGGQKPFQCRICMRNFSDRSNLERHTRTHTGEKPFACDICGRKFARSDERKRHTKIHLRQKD

Sequence	Kd [1] [nM]	Kd [2] [nM]	Kd [3] [nM]	other results
GCGGACGCGGCGTGGGCG (double strand) [bsC (123456, ZM)]	0.011	0.05	–	–
GCGGACGCGNGCGTGGGCG (double strand) [Z1M]	0.006	0.05	0.004	–
GCGGACGCGNNGCGTGGGCG (double strand) [Z2M]	0.007	0.05	0.006	–
GCGGACGCGNNNGCGTGGGCG (double strand) [Z3M]	0.005	0.05	0.004	–
GCGGACGCGNNNNGCGTGGGCG (double strand) [Z4M]	0.013	0.05	0.003	–
GCGGACGCGNNNNNGCGTGGGCG (double strand) [Z5M]	0.016	0.05	0.008	Kd [4]: 0.013 nM; Kd [5]: 0.018 nM
GCGGACGCGNNNNNNGCGTGGGCG (double strand) [Z6M]	0.017	0.05	0.007	Kd [4]: 0.013 nM; Kd [5]: 0.011 nM
GCGGACGCGNNNNNNNGCGTGGGCG (double strand) [Z7M]	0.005	0.05	0.003	–
GCGGACGCGNNNNNNNNGCGTGGGCG (double strand) [Z8M]	0.005	0.05	0.006	–
GCGGACGCGNNNNNNNNNGCGTGGGCG (double strand) [Z9M]	0.005	0.05	0.004	–
GCGGACGCGNNNNNNNNNNGCGTGGGCG (double strand) [Z10M]	0.004	0.05	0.003	–
GCGTGGGCG (double strand) [bsA (ZIF site)]	–	–	–	Kd [6]: 2.2 nM; Kd (3x2F ZGS (artificial)): 110 nM; Kd ([7]; half-site): 1.8 nM; Kd [8]: 2 nM; Kd ([1]; half-site): 2.2 nM; Kd ([3]; half-site): 2 nM
GCGTGGGCGAGTACCTGGATGGGAGAC (double strand) [TF7Z (bsC1)]	–	–	–	Kd [7]: 0.057 nM
GCGTGGGCGGTACCTGGATGGGAGAC (double strand) [TF6Z (bsB1)]	–	–	–	Kd [7]: 0.068 nM
GCGTGGGCGTACCTGGATGGGAGAC (double strand) [TF5Z (bsA1)]	–	–	–	Kd [7]: 0.063 nM
GCGTGGGCGTAGTACCTGGATGGGAGAC (double strand) [TF8Z (bsD1)]	–	–	–	Kd [7]: 0.061 nM
GCGTGGGCGTTAGTACCTGGATGGGAGAC (double strand) [TF9Z (bsE1)]	–	–	–	Kd [7]: 0.058 nM
